Measured values: publication PMC7954794 (2021)

B1: S. cerevisiae Abp1 (full length; SH3 domain 535-592 mutated) / Hua2 (parent complex)
chain 1: MALEPIDYTTHSREIDAEYLKIVRGSDPDTTWLIISPNAKKEYEPESTGSSFHDFLQLFDETKVQYGLARVSPPGSDVEKIIIIGWCPDSAPLKTRASFAANFAAVANNLFKGYHVQVTARDEDDLDENELLMKISNAAGARYSIQTSSKQQGKASTPPVKKSFTPSKSPAPVSKKEPVKTPSPAPAAKISSRVNDNNDDDDWNEPELKERDFDQAPLKPNQSSYKPIGKIDLQKVIAEEKAKEDPRLVQKPTAAGSKIDPSSDIANLKNESKLKRDSEFNSFLGTTKPPSMTESSLKNDDDKVIKGFRNEKSPAQLWAERKAKQNSGNAETKAEAPKPEVPEDEPEGEPDVKDLKSKFEGLAASEKEEEEMENKFAPPPKKSEPTIISPKPFSKPQEPVKAEEAEQPKTDYKKIGNPLPGMHIEADNEEEPEENDDDWDDDEDEAAQPPLPSRNVASGAPVQKEEPEQEEIAPSLPSRNSIPAPKQEEAPEQAPEEEIEEEAEEAAPQLPSRSSAAPPPPPRRATPEKKPKENPWATAEYDYDAAEDNELTFVENDKIINIEFVDDDWWLGELEKDGSKGLFPSNYVSLGN
chain 2: MQQTKFGKMYLDHDSVVEYSEDEIVEADRITLGYKKRLSMIENQMRHLLEDFSLDVQQIEPILADLQKYYDAFLQLLQKRNKSLQCKRSTHQPVPSPMNSQTSTNAKVNLSGKLMKFQLNSVQKFDEENILRILQNKIEFEHYFQIDKGKKQKVLLLAVYQCLNGPTRLHKVLNIEGIIHNNSIRTILGKQVSSSKWTVFLYDVKLVLLAHRQDVPNLETSKMIVRYGDLFPCALYFKDHTAY

Variants of: B1
Assay: DHFR protein-fragment complementation in yeast (Abp1-DHFR F[1,2] x partner-DHFR F[3]), deep mutational scanning, second methotrexate selection vs reference; S. cerevisiae, DHFR-PCA selection in liquid with methotrexate at 30 C, two 72 h selections (the score uses the second); reference = the pre-selection culture
chain 1 W536S was tested, and the screen value was -0.564 DMS score: mean over two replicates of log2(f_test/f_ref + 0.5)/ln 2, minus the synonymous-codon median (not a log2 ….
In the case of chain 1 K576S, the screen value is reported as -0.288 DMS score: mean over two replicates of log2(f_test/f_ref + 0.5)/ln 2, minus the synonymous-codon median (not a log2 ….
chain 1 T538E was tested, and the screen value was -0.61 DMS score: mean over two replicates of log2(f_test/f_ref + 0.5)/ln 2, minus the synonymous-codon median (not a log2 ….
chain 1 Y541Q was tested, and the screen value was -2.54 DMS score: mean over two replicates of log2(f_test/f_ref + 0.5)/ln 2, minus the synonymous-codon median (not a log2 ….
For chain 1 I560Q, the screen value was -0.419 DMS score: mean over two replicates of log2(f_test/f_ref + 0.5)/ln 2, minus the synonymous-codon median (not a log2 ….
In the case of chain 1 E563C, the screen value is reported as -0.992 DMS score: mean over two replicates of log2(f_test/f_ref + 0.5)/ln 2, minus the synonymous-codon median (not a log2 ….
With chain 1 E555D the screen value was -1 DMS score: mean over two replicates of log2(f_test/f_ref + 0.5)/ln 2, minus the synonymous-codon median (not a log2 ….
chain 1 Y587A was tested, and the screen value was -2.26 DMS score: mean over two replicates of log2(f_test/f_ref + 0.5)/ln 2, minus the synonymous-codon median (not a log2 ….
In the case of chain 1 L574N, the screen value is reported as 0.59 DMS score: mean over two replicates of log2(f_test/f_ref + 0.5)/ln 2, minus the synonymous-codon median (not a log2 ….
chain 1 W536T was tested, and the screen value was -0.062 DMS score: mean over two replicates of log2(f_test/f_ref + 0.5)/ln 2, minus the synonymous-codon median (not a log2 ….
For chain 1 L571F, the screen value was 0.614 DMS score: mean over two replicates of log2(f_test/f_ref + 0.5)/ln 2, minus the synonymous-codon median (not a log2 ….
With chain 1 A546K the screen value was -0.851 DMS score: mean over two replicates of log2(f_test/f_ref + 0.5)/ln 2, minus the synonymous-codon median (not a log2 ….
chain 1 E555S was tested, and the screen value was 0.724 DMS score: mean over two replicates of log2(f_test/f_ref + 0.5)/ln 2, minus the synonymous-codon median (not a log2 ….
For chain 1 E575A, the screen value was 0.223 DMS score: mean over two replicates of log2(f_test/f_ref + 0.5)/ln 2, minus the synonymous-codon median (not a log2 ….
For chain 1 D548L, the screen value was -0.0418 DMS score: mean over two replicates of log2(f_test/f_ref + 0.5)/ln 2, minus the synonymous-codon median (not a log2 ….
With chain 1 W536F the screen value was -0.302 DMS score: mean over two replicates of log2(f_test/f_ref + 0.5)/ln 2, minus the synonymous-codon median (not a log2 ….
In the case of chain 1 D566K, the screen value is reported as -2.34 DMS score: mean over two replicates of log2(f_test/f_ref + 0.5)/ln 2, minus the synonymous-codon median (not a log2 ….
